Data on three molecules can be found in publication PMC11229369.

Read-outs that look alike come from different tables or passages of the source.

The target of one series is T1, Cas13h1 (UniProt PDB:8WCE_1 1-1111).
T1 sequence: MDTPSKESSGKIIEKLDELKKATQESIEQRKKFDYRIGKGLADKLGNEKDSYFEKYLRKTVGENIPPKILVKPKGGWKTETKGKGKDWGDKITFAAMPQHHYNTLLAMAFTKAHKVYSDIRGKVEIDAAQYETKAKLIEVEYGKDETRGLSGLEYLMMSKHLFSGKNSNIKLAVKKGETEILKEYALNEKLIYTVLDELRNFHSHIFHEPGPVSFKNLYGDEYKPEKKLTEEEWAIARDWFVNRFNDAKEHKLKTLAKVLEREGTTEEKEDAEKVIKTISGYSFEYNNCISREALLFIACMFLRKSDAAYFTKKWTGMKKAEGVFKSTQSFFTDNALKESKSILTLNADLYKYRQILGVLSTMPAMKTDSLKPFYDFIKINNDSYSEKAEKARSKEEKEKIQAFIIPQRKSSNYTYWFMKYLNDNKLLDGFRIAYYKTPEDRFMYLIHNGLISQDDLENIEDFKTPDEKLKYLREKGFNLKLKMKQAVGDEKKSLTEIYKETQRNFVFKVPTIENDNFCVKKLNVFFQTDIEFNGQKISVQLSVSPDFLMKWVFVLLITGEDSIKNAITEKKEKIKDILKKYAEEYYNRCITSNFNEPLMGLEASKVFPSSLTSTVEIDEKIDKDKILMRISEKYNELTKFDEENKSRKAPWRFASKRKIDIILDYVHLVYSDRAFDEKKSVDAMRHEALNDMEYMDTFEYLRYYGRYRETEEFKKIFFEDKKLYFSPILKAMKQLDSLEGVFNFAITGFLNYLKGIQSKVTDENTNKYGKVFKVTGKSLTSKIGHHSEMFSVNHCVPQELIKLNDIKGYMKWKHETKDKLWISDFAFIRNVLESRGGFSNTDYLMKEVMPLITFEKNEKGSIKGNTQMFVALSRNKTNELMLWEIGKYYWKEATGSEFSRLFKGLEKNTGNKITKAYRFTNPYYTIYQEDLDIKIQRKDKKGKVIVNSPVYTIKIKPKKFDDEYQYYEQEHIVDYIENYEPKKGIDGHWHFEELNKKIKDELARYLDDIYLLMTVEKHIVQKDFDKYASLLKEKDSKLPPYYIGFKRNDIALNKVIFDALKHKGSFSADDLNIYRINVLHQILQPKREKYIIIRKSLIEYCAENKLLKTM
Put plainly: cryo-EM.

The target in the next series is T2, Cas13h1 Middle (UniProt PDB:8WCE_1 340-930).
T2 sequence: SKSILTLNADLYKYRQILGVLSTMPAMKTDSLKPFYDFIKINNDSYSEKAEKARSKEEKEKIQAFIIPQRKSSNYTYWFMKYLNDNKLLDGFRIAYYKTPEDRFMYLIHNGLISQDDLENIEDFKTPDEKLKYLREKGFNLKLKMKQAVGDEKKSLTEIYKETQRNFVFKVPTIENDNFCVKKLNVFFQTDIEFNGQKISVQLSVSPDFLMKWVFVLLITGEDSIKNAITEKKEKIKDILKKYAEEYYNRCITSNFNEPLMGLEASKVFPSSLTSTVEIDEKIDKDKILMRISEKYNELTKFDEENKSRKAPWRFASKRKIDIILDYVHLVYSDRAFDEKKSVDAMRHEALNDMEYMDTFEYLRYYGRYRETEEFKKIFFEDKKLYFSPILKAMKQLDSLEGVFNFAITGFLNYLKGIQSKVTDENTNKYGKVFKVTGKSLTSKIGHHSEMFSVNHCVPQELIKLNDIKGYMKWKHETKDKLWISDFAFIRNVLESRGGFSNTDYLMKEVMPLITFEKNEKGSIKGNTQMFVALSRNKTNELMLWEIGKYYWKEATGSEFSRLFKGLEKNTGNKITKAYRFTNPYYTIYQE
The experiment in a line: size exclusion chromatography.

Series [1] addresses T3, Cas13h1 R200A (catalytically dead) (UniProt PDB:8WCE_1 1-1111, R200A).
T3 sequence: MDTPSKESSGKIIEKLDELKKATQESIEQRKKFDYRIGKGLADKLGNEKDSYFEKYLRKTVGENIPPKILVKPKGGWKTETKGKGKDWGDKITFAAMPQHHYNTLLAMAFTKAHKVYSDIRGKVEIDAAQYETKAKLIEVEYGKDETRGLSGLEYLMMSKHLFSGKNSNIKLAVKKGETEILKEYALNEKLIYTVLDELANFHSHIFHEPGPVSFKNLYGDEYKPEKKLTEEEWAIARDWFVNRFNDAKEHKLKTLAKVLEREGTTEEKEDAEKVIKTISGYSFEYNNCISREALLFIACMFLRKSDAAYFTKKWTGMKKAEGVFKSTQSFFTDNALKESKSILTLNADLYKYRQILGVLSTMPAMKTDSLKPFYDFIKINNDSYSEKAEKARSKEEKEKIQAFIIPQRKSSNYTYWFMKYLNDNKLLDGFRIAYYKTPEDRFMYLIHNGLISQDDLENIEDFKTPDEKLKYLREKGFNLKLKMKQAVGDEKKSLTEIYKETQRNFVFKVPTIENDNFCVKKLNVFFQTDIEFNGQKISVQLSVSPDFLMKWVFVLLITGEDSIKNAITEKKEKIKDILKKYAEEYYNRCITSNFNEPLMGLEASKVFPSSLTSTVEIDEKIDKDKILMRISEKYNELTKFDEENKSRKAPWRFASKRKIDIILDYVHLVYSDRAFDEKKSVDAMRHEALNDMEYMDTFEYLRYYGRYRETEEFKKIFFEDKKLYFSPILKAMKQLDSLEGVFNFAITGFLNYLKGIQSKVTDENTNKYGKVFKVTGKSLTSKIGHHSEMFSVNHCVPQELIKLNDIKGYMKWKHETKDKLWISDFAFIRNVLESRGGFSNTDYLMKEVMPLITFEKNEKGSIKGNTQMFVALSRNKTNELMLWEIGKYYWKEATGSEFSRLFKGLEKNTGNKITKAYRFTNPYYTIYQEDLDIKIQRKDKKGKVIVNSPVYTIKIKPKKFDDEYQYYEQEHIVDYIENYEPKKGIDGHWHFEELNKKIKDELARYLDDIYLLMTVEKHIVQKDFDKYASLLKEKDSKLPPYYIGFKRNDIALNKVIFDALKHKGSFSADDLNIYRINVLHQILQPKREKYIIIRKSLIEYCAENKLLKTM
Put plainly: cryo-EM.

Series [2] has as its target T3, Cas13h1 R200A (catalytically dead). The experiment in a line: cryo-EM. This is another data set of the same source.

B1: crRNA (30-nt guide, 36-nt repeat) (structured_RNA)
RNA: UGCUUCACGUAGGCCUUGGAGCCGUACAUGGUUGUAACAAGCCUAAGUUUGAAAGGUAAAAACAAC
Regarding B1, the binding result with Cas13h1 is on record as “binds”.

B2: crRNA / target RNA1 (5'-G) (structured_RNA)
RNA 1: UGCUUCACGUAGGCCUUGGAGCCGUACAUGGUUGUAACAAGCCUAAGUUUGAAAGGUAAAAACAAC
RNA 2: GCAUGUACGGCUCCAAGGCCUACGUGAAGCA
As to B2, the binding result (in the series with Cas13h1 Middle; in series [1]) was “binds” throughout.

B3: crRNA / target RNA3 (5'-U) (structured_RNA)
RNA 1: UGCUUCACGUAGGCCUUGGAGCCGUACAUGGUUGUAACAAGCCUAAGUUUGAAAGGUAAAAACAAC
RNA 2: UCAUGUACGGCUCCAAGGCCUACGUGAAGCA
Turning to B3, in series [2], the binding result was “binds”.
